Laboratory results from publication PMC3024247.

Molecular target: amyloid β-peptide (human, 1-40) (human)
Experiment: SPR; Biacore 3000; Aβ immobilised by amine coupling on a CM5 chip; analytes injected in 10 mM HEPES-NaOH pH 7.4, 0.15 M NaCl, 0.0005% Tween 20; 25°C; hMK 0.62-20 μg/ml for the constant, all other analytes 5 μg/ml

Kd: 160 nM
B1: human midkine (natural protein)
chain: VAKKKDKVKKGGPGSECAEWAWGPCTPSSKDCGVGFREGTCGAQTQRIRCRVPCNWKKEFGADCKYKFENWGACDGGTGTKVRQGTLKKARYNAQCQETIRVTKPCTPKTKAKAKAKKGKGKD
